The source of these data is US20240058441A1 (published 2024).

For the experiment, the target named is KRas protein (purified) (UniProt P01116 1-186). Briefly: SPR.

B1: TKDm molecule (control molecule of TKD with mutated CTM, CTMmt, incapable of being recognized by lysosome) (VHH)
VHH: DVQLQESGGGLVQAGGSLRLSCVASGRTFSTYPTGWFRQAPGKEREFVARINLSGGITNYADSVKGRFTISRDNAKNTVYLQMNSLKPEDTAVYYCGGGSTTWAGGIPTNFDYWGQGTQVTVSS
Molecule B1 registered a Kd of 1.09 nM.

B2: TKD molecule (nanobody-mediated KRas protein targeting degradation system; fusion protein BR2 - anti-KRas nanobody VHH - CTM) (VHH)
VHH: B1 VHH
For B2, the Kd is 7.24 nM.
